# From the supplement of paper PMC10567573
# B1: ZMYND11 (parent)
# chain: YCSIKCQQEHWHAEHKRTCRRKR
# Variants of: B1
# Assay: protein stability index of a GFP-peptide fusion (GPS, HEK-293T) (PSI 1-6); higher = more stable
# Details: c terminus: native
# 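Further: lentivirally expressed fusions sorted by FACS into six bins by GFP to DsRed ratio, PSI derived from sequencing read proportions per bin multiplied by bin number.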
row,Variant,protein stability index
1,ICSIKCQQEHWHAEHKRTCRRKR,3.23
2,KCSIKCQQEHWHAEHKRTCRRKR,3.12
3,LCSIKCQQEHWHAEHKRTCRRKR,2.86
4,MCSIKCQQEHWHAEHKRTCRRKR,3.94
5,NCSIKCQQEHWHAEHKRTCRRKR,3.79
6,PCSIKCQQEHWHAEHKRTCRRKR,3.46
7,QCSIKCQQEHWHAEHKRTCRRKR,3.91
8,RCSIKCQQEHWHAEHKRTCRRKR,3.62
9,SCSIKCQQEHWHAEHKRTCRRKR,4.09
10,TCSIKCQQEHWHAEHKRTCRRKR,3.67
11,VCSIKCQQEHWHAEHKRTCRRKR,3.71
12,WCSIKCQQEHWHAEHKRTCRRKR,2.29
13,YASIKCQQEHWHAEHKRTCRRKR,2.1
14,YDSIKCQQEHWHAEHKRTCRRKR,3.76
15,YESIKCQQEHWHAEHKRTCRRKR,2.87
16,YFSIKCQQEHWHAEHKRTCRRKR,2.89
17,YGSIKCQQEHWHAEHKRTCRRKR,2.8
18,YHSIKCQQEHWHAEHKRTCRRKR,1.54
19,YISIKCQQEHWHAEHKRTCRRKR,1.92
20,YKSIKCQQEHWHAEHKRTCRRKR,2.68
21,YLSIKCQQEHWHAEHKRTCRRKR,2.32
22,YMSIKCQQEHWHAEHKRTCRRKR,3.01
23,YNSIKCQQEHWHAEHKRTCRRKR,3.64
24,YPSIKCQQEHWHAEHKRTCRRKR,2.2
25,YQSIKCQQEHWHAEHKRTCRRKR,1.79

row,Variant,protein stability index
1,YRSIKCQQEHWHAEHKRTCRRKR,3.01
2,YSSIKCQQEHWHAEHKRTCRRKR,3.1
3,YTSIKCQQEHWHAEHKRTCRRKR,3.44
4,YVSIKCQQEHWHAEHKRTCRRKR,1.45
5,YYSIKCQQEHWHAEHKRTCRRKR,2.85
6,YCAIKCQQEHWHAEHKRTCRRKR,1.96
7,YCCIKCQQEHWHAEHKRTCRRKR,3.31
8,YCDIKCQQEHWHAEHKRTCRRKR,3.07
9,YCEIKCQQEHWHAEHKRTCRRKR,3.27
10,YCFIKCQQEHWHAEHKRTCRRKR,1.11
11,YCGIKCQQEHWHAEHKRTCRRKR,1.86
12,YCHIKCQQEHWHAEHKRTCRRKR,2.24
13,YCIIKCQQEHWHAEHKRTCRRKR,1.84
14,YCKIKCQQEHWHAEHKRTCRRKR,2.61
15,YCLIKCQQEHWHAEHKRTCRRKR,1.7
16,YCMIKCQQEHWHAEHKRTCRRKR,2.19
17,YCNIKCQQEHWHAEHKRTCRRKR,2.85
18,YCPIKCQQEHWHAEHKRTCRRKR,2.17
19,YCQIKCQQEHWHAEHKRTCRRKR,2.59
20,YCRIKCQQEHWHAEHKRTCRRKR,2.19
21,YCTIKCQQEHWHAEHKRTCRRKR,2.48
22,YCVIKCQQEHWHAEHKRTCRRKR,2.36
23,YCWIKCQQEHWHAEHKRTCRRKR,1.51
24,YCYIKCQQEHWHAEHKRTCRRKR,1.94
25,YCSAKCQQEHWHAEHKRTCRRKR,2.76

row,Variant,protein stability index
1,YCSCKCQQEHWHAEHKRTCRRKR,2.67
2,YCSDKCQQEHWHAEHKRTCRRKR,2.6
3,YCSEKCQQEHWHAEHKRTCRRKR,3.25
4,YCSFKCQQEHWHAEHKRTCRRKR,2.66
5,YCSGKCQQEHWHAEHKRTCRRKR,1.84
6,YCSHKCQQEHWHAEHKRTCRRKR,2.62
7,YCSKKCQQEHWHAEHKRTCRRKR,2.37
8,YCSLKCQQEHWHAEHKRTCRRKR,2.14
9,YCSMKCQQEHWHAEHKRTCRRKR,1.83
10,YCSNKCQQEHWHAEHKRTCRRKR,2.9
11,YCSPKCQQEHWHAEHKRTCRRKR,2.38
12,YCSQKCQQEHWHAEHKRTCRRKR,1.94
13,YCSRKCQQEHWHAEHKRTCRRKR,2.79
14,YCSSKCQQEHWHAEHKRTCRRKR,2.51
15,YCSTKCQQEHWHAEHKRTCRRKR,2.08
16,YCSVKCQQEHWHAEHKRTCRRKR,2.51
17,YCSWKCQQEHWHAEHKRTCRRKR,1.89
18,YCSYKCQQEHWHAEHKRTCRRKR,3.92
19,YCSIACQQEHWHAEHKRTCRRKR,2.09
20,YCSICCQQEHWHAEHKRTCRRKR,3.25
21,YCSIDCQQEHWHAEHKRTCRRKR,2.63
22,YCSIECQQEHWHAEHKRTCRRKR,2.51
23,YCSIFCQQEHWHAEHKRTCRRKR,1.67
24,YCSIGCQQEHWHAEHKRTCRRKR,2.09
25,YCSIHCQQEHWHAEHKRTCRRKR,2.07

row,Variant,protein stability index
1,YCSIICQQEHWHAEHKRTCRRKR,1.56
2,YCSILCQQEHWHAEHKRTCRRKR,2.09
3,YCSIMCQQEHWHAEHKRTCRRKR,2.27
4,YCSINCQQEHWHAEHKRTCRRKR,2.53
5,YCSIPCQQEHWHAEHKRTCRRKR,1.75
6,YCSIQCQQEHWHAEHKRTCRRKR,3.2
7,YCSIRCQQEHWHAEHKRTCRRKR,3.15
8,YCSISCQQEHWHAEHKRTCRRKR,2.22
9,YCSITCQQEHWHAEHKRTCRRKR,2.6
10,YCSIVCQQEHWHAEHKRTCRRKR,1.66
11,YCSIYCQQEHWHAEHKRTCRRKR,2.91
12,YCSIKAQQEHWHAEHKRTCRRKR,2.39
13,YCSIKDQQEHWHAEHKRTCRRKR,2.69
14,YCSIKEQQEHWHAEHKRTCRRKR,2.87
15,YCSIKFQQEHWHAEHKRTCRRKR,1.96
16,YCSIKGQQEHWHAEHKRTCRRKR,2.74
17,YCSIKHQQEHWHAEHKRTCRRKR,2.9
18,YCSIKIQQEHWHAEHKRTCRRKR,1.78
19,YCSIKKQQEHWHAEHKRTCRRKR,2.69
20,YCSIKLQQEHWHAEHKRTCRRKR,1.75
21,YCSIKMQQEHWHAEHKRTCRRKR,1.9
22,YCSIKNQQEHWHAEHKRTCRRKR,1.76
23,YCSIKPQQEHWHAEHKRTCRRKR,2.57
24,YCSIKQQQEHWHAEHKRTCRRKR,1.59
25,YCSIKRQQEHWHAEHKRTCRRKR,1.56

row,Variant,protein stability index
1,YCSIKSQQEHWHAEHKRTCRRKR,2.38
2,YCSIKTQQEHWHAEHKRTCRRKR,1.87
3,YCSIKVQQEHWHAEHKRTCRRKR,2.59
4,YCSIKWQQEHWHAEHKRTCRRKR,1.77
5,YCSIKYQQEHWHAEHKRTCRRKR,2.07
6,YCSIKCAQEHWHAEHKRTCRRKR,2.36
7,YCSIKCCQEHWHAEHKRTCRRKR,1.95
8,YCSIKCDQEHWHAEHKRTCRRKR,2.56
9,YCSIKCEQEHWHAEHKRTCRRKR,2.42
10,YCSIKCFQEHWHAEHKRTCRRKR,1.67
11,YCSIKCGQEHWHAEHKRTCRRKR,2.46
12,YCSIKCHQEHWHAEHKRTCRRKR,2.69
13,YCSIKCIQEHWHAEHKRTCRRKR,2.44
14,YCSIKCKQEHWHAEHKRTCRRKR,3.05
15,YCSIKCLQEHWHAEHKRTCRRKR,2.21
16,YCSIKCMQEHWHAEHKRTCRRKR,2.15
17,YCSIKCNQEHWHAEHKRTCRRKR,2.38
18,YCSIKCPQEHWHAEHKRTCRRKR,2.2
19,YCSIKCSQEHWHAEHKRTCRRKR,3.18
20,YCSIKCTQEHWHAEHKRTCRRKR,2.63
21,YCSIKCVQEHWHAEHKRTCRRKR,1.37
22,YCSIKCWQEHWHAEHKRTCRRKR,1.53
23,YCSIKCYQEHWHAEHKRTCRRKR,2.35
24,YCSIKCQAEHWHAEHKRTCRRKR,2.33
25,YCSIKCQCEHWHAEHKRTCRRKR,2.51

row,Variant,protein stability index
1,YCSIKCQDEHWHAEHKRTCRRKR,2.7
2,YCSIKCQEEHWHAEHKRTCRRKR,2.34
3,YCSIKCQFEHWHAEHKRTCRRKR,2.84
4,YCSIKCQGEHWHAEHKRTCRRKR,2.47
5,YCSIKCQHEHWHAEHKRTCRRKR,2.21
6,YCSIKCQIEHWHAEHKRTCRRKR,1.49
7,YCSIKCQKEHWHAEHKRTCRRKR,2.77
8,YCSIKCQLEHWHAEHKRTCRRKR,1.72
9,YCSIKCQMEHWHAEHKRTCRRKR,2.48
10,YCSIKCQNEHWHAEHKRTCRRKR,2.55
11,YCSIKCQPEHWHAEHKRTCRRKR,2.46
12,YCSIKCQREHWHAEHKRTCRRKR,2.2
13,YCSIKCQSEHWHAEHKRTCRRKR,2.51
14,YCSIKCQTEHWHAEHKRTCRRKR,1.86
15,YCSIKCQVEHWHAEHKRTCRRKR,1.78
16,YCSIKCQWEHWHAEHKRTCRRKR,1.85
17,YCSIKCQYEHWHAEHKRTCRRKR,2.08
18,YCSIKCQQAHWHAEHKRTCRRKR,2.65
19,YCSIKCQQCHWHAEHKRTCRRKR,3.31
20,YCSIKCQQDHWHAEHKRTCRRKR,2.31
21,YCSIKCQQFHWHAEHKRTCRRKR,2.11
22,YCSIKCQQGHWHAEHKRTCRRKR,2.89
23,YCSIKCQQHHWHAEHKRTCRRKR,2.78
24,YCSIKCQQIHWHAEHKRTCRRKR,2.11
25,YCSIKCQQKHWHAEHKRTCRRKR,2.17

row,Variant,protein stability index
1,YCSIKCQQLHWHAEHKRTCRRKR,2.07
2,YCSIKCQQMHWHAEHKRTCRRKR,1.53
3,YCSIKCQQNHWHAEHKRTCRRKR,1.94
4,YCSIKCQQPHWHAEHKRTCRRKR,2.11
5,YCSIKCQQQHWHAEHKRTCRRKR,1.52
6,YCSIKCQQRHWHAEHKRTCRRKR,2.6
7,YCSIKCQQSHWHAEHKRTCRRKR,1.68
8,YCSIKCQQTHWHAEHKRTCRRKR,1.97
9,YCSIKCQQVHWHAEHKRTCRRKR,2.93
10,YCSIKCQQWHWHAEHKRTCRRKR,2.37
11,YCSIKCQQYHWHAEHKRTCRRKR,1.93
12,YCSIKCQQEAWHAEHKRTCRRKR,1.95
13,YCSIKCQQECWHAEHKRTCRRKR,1.54
14,YCSIKCQQEDWHAEHKRTCRRKR,1.96
15,YCSIKCQQEEWHAEHKRTCRRKR,2.18
16,YCSIKCQQEGWHAEHKRTCRRKR,2.81
17,YCSIKCQQEIWHAEHKRTCRRKR,1.92
18,YCSIKCQQEKWHAEHKRTCRRKR,2.12
19,YCSIKCQQELWHAEHKRTCRRKR,1.65
20,YCSIKCQQEMWHAEHKRTCRRKR,1.4
21,YCSIKCQQENWHAEHKRTCRRKR,3.26
22,YCSIKCQQEPWHAEHKRTCRRKR,2.1
23,YCSIKCQQEQWHAEHKRTCRRKR,2.45
24,YCSIKCQQERWHAEHKRTCRRKR,3.33
25,YCSIKCQQESWHAEHKRTCRRKR,2.36

row,Variant,protein stability index
1,YCSIKCQQETWHAEHKRTCRRKR,2.07
2,YCSIKCQQEVWHAEHKRTCRRKR,1.11
3,YCSIKCQQEYWHAEHKRTCRRKR,1.73
4,YCSIKCQQEHAHAEHKRTCRRKR,2.98
5,YCSIKCQQEHCHAEHKRTCRRKR,3.41
6,YCSIKCQQEHDHAEHKRTCRRKR,4.43
7,YCSIKCQQEHEHAEHKRTCRRKR,4.32
8,YCSIKCQQEHFHAEHKRTCRRKR,2.76
9,YCSIKCQQEHGHAEHKRTCRRKR,4.05
10,YCSIKCQQEHHHAEHKRTCRRKR,3.45
11,YCSIKCQQEHIHAEHKRTCRRKR,3.03
12,YCSIKCQQEHKHAEHKRTCRRKR,3.52
13,YCSIKCQQEHLHAEHKRTCRRKR,2.97
14,YCSIKCQQEHMHAEHKRTCRRKR,3.58
15,YCSIKCQQEHNHAEHKRTCRRKR,3.98
16,YCSIKCQQEHPHAEHKRTCRRKR,4.14
17,YCSIKCQQEHQHAEHKRTCRRKR,4.24
18,YCSIKCQQEHRHAEHKRTCRRKR,2.96
19,YCSIKCQQEHSHAEHKRTCRRKR,3.2
